These results are taken from patent publication US20170052184A1.

Numbering of substitutions follows the chain as printed. Where two headings read alike, the source gives them in different places. Where only a bound is given, the exact number is not on record here.

In experiment [1] the target is bovine serum albumin (BSA) (bovine) (UniProt P02769). Briefly: EIA, BSA background.
The target is the same in experiment [2]. Briefly: EIA, BSA background. The source holds these as a separate data set.
Experiment [3] deals with HCV Core1-169 (hepatitis C virus (HCV-1)) (UniProt P26664). The experiment in a line: SPR sandwich, capture mAb C11-7.
Experiment [4] deals with T1, HCV bt-134-154 (Peptide 1, HCVc 134-154) (Hepatitis C virus (numbering per HCV-1)).
T1 sequence (peptide, biotin (carboxy-terminal per [p-0227]; N-terminal per [p-0050])): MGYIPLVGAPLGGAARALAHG
The experiment in a line: EIA, captured mAb + biotin peptide.

The target in experiment [5] is T2, HCV bt-151-171 (Peptide 3, HCVc 151-171) (Hepatitis C virus (numbering per HCV-1)).
T2 sequence (peptide, biotin (carboxy-terminal per [p-0227]; N-terminal per [p-0050])): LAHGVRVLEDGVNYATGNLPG
Briefly: EIA, captured mAb + biotin peptide.

The target of experiment [6] is T3, HCV bt-141-161 (Peptide 2, HCVc 141-161) (Hepatitis C virus (numbering per HCV-1)).
T3 sequence (peptide, biotin (carboxy-terminal per [p-0227]; N-terminal per [p-0050])): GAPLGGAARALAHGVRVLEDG
Briefly: EIA, captured mAb + biotin peptide.

Experiment [7] has as its target bovine serum albumin (bovine) (UniProt P02769). The experiment in a line: EIA, BSA control.
Experiment [8] deals with HCV Core1-169 (HCV-1) (UniProt P26664). Briefly: EIA, core1-169 coated on plate.
Experiment [9] deals with HCV Core1-169 (hepatitis C virus (HCV-1)) (UniProt P26664). Briefly: SPR sandwich, capture mAb C11-14.
Experiment [10] concerns the target HCV Core1-169 (HCV-1) (UniProt P26664). Briefly: EIA, core1-169 captured by mAb 14-153-229.
Experiment [11] has as its target HCV Core1-169 (hepatitis C virus (HCV-1)) (UniProt P26664). Briefly: SPR sandwich, capture mAb C11-9.
Experiment [12] has the same target. The experiment in a line: SPR sandwich, capture mAb C11-3.
In experiment [13] the target is T4, HCV Core1-169 (hepatitis C virus (HCV-1)), P26664.
T4 chain: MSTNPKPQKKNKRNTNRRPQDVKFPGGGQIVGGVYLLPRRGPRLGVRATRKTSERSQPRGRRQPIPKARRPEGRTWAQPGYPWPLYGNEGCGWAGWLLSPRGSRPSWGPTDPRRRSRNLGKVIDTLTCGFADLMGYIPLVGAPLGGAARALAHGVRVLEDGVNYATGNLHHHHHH
Briefly: SPR sandwich, capture mAb C11-3. To be noted: remark: other sources report otherwise.

Experiment [14] concerns the target T5, HCV Core1-169 (HCV-1), P26664.
T5 chain: T4 chain
Briefly: EIA, core1-169 captured by mAb 14-153-229. To be noted: remark: other sources report otherwise.

Experiment [15] concerns the target T4, HCV Core1-169 (hepatitis C virus …). The experiment in a line: SPR sandwich, capture mAb C11-14. To be noted: remark: other sources report otherwise.
The target of experiment [16] is T5, HCV Core1-169 (HCV-1), P26664. The experiment in a line: EIA, core1-169 coated on plate. The settings on record: remark: other sources report otherwise.
Experiment [17] addresses T4, HCV Core1-169 (hepatitis C virus …). Briefly: SPR sandwich, capture mAb C11-7. To be noted: remark: other sources report otherwise.
For experiment [18] the target is unchanged. Briefly: SPR sandwich, capture mAb C11-9. To be noted: remark: other sources report otherwise.

Sequence of bovine serum albumin (BSA) (bovine) (P02769 25-607 limits assumed): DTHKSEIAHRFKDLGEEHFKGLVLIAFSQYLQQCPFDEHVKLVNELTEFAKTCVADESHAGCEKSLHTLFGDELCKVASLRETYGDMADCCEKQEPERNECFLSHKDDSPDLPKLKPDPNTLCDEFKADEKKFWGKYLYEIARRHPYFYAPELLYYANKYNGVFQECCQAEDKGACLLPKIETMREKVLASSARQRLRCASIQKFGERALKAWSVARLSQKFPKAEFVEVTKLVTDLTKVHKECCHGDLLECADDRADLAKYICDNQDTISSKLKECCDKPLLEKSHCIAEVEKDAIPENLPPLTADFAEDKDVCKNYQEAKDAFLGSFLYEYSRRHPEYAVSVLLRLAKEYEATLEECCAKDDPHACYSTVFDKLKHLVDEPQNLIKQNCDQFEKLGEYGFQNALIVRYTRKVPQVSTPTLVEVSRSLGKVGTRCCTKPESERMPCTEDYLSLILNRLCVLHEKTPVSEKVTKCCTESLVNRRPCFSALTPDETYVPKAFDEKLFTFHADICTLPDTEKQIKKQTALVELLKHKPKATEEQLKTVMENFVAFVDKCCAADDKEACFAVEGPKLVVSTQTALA
Sequence of bovine serum albumin (bovine) (P02769 25-607 limits assumed): as above

B1: HCV 208A-967 (antibody, V domains shown)
VH: QVQLEESGPGLVAPSQSLSITCTVSGFSLTSYGVHWVRQPPGKGLEWLGVIWAVGSINYNSALMSRLSISKDNSKSQVFLKMNSLRTDDTAMYYCARDRTTATPFFDYWGQGTTLTVSS
VL: DIVLTQSPASLAGSLGKRAPISCKASESVNFFGTNLIHWYQQKPGQPPKLLIYHASNLKTGVPARFRGRGSKTNFPLPIDPVEENDVAIYYCLQNRKIPLTFGVGTKLELKR
Turning to B1, the OD (A492) came to 1.3 OD in [1], 0.15 OD in experiment [2], 1.08 OD in experiment [8] and 0.18 OD in experiment [10]. Moreover, the expected percent binding in [3], in [9], in experiment [11] and in [12] was below 1% throughout. Further, the Reactivity (OD 492 nm) is 0.52 OD units in experiment [4], 0.18 OD units in experiment [5], 0.73 OD units in [6] and 0.07 OD units in experiment [7].

B2: HCV 208B-174 (antibody, V domains shown)
VH: EVKLEESGGGLVQPGGSMKLSCVASGFSFSSYWMSWVRQSPEKGLDWVAEIRLRSDNYATHYAESVKGRFTISRDDSISRLYLQMNTLRAEDTGIYYCTWMTYWGQGTLVTVSA
VL: QNVLTQSPAIMSASPGEKVTMSCSASSSVTYMFWYQLKPESSPRLLIYDTSNLASGVPVRFSGSGSGTSYSLTISRMEAEDAATYYCQEWSSYPLTFGAGTKLDLKR
As for B2, the expected percent binding in experiment [13] is 1.6%; in experiment [15], 1.6%; in [17], 1.5%; in experiment [18], below 1%. Further, the OD (A492) is 0.75 OD in experiment [14] and 0.15 OD in experiment [16].

B3: HCV 208A-983 (antibody, V domains shown)
VH: QGQMQQSGAELVKPGASVKLSCKTSGFTFSSSYFSWLKQKPGQSLEWIAWIYAGTGNTIYNQKFTDKAQLTVDTASSTAFMQLSSLTIEDSAIYYCAISGTGFTYWGQGTLVTVSA
VL: DVLMTQTPLSLPVNLGDQASISCRSSQSLLHSNGNTYLEWFLQKPGQSPKLLIYNVSNRFSGVPDRFSGSGSGTDFTLKISRVEAEDLGVYYCFQGSHVPFTFGSGTKLAIKR
For the molecule B3, the expected percent binding in experiment [13], in experiment [15], in experiment [17] and in experiment [18] was below 1% throughout. The OD (A492) worked out at 0.64 OD in experiment [14] and 0.12 OD in [16].

B4: HCV 208B-471 (antibody, V domains shown)
VH: QGQLQQSGPVLVKPGASEILYCKTSGFTFSSTYISWLKQKPGQSLEWIAWIYAGTGATNYNQKFTGKAQLTVDASSNTAYMHFSGLTPEDSAIYYCAISGAGVYWGQGTLVTVSA
VL: B3 VL with L3V, N14S, F41Y, K50N, T77A, E84G, F101L, S105A, A110E, I111L
On to B4, for which the expected percent binding in experiment [13], in experiment [15], in experiment [17] and in experiment [18] was below 1% throughout. Also, the OD (A492) in [14] is 0.35 OD; in [16] it was 0.24 OD.
